Measurements reported in US20120231000A1.

Target: Avastin™ (Bevacizumab)
Assay: competition ELISA, inhibition of Avastin binding to coated humVEGF1-165

B1: oxid-humVEGF26-104 (designed binder)
chain: CHPIETLVDIFQEYPDEIEYIFKPSAVPLMRCGGACNDEGLECVPTEESNITMQIMRIKPHQGQHIGEMSFLQHNKCEC
modifications: N-terminal acetyl; C-terminal amide; oxidatively folded cystine knot (three disulfide bonds C1-C4, C2-C5, C3-C6)
For B1, which fold difference in affinity as compared to humVEGF1-165 is on record?
The fold difference in affinity as compared to humVEGF1-165 was < 5 fold.
